In the DeepSol protein solubility set:

test: soluble on expression in E. coli; label from the status in PepcDB or PDB records

Soluble on expression in E. coli, soluble:
DIQMNQSPSSLSASLGDTITITCHASQNINVWLNWFQQKPGSIPKLLIYMASNLHTGVPSRFSGSGSGTGFTLTISSLQPEDIATYYCQQGQSFPLTFGGGTKLEIKRADAAPTVSIFPPSSEQLTSGGASVVCFLNNFYPKDINVKWKIDGSERQNGVLNSWTDQDSKDSTYSMSSTLTLTKDEYERHNSYTCEATHKTSTSPIVKSFNRN
MTGITVSDSAARRIAKILDSEPGKTALRVSVEGGGCSGFSYKYDLVDAQTEDDIVIEKLGARVLIDSISVPYMDGSEIDFVDDLMGQSFQIRNPNATASCGCGTSFAILEHHHHHH
MGSSHHHHHHGKTIFVIVPTNEEQVAFLEALAKQDELNFDWQNPPTEPGQPVVILIPSDMVEWFLEMLKAKGIPFTVYVEEGGSENLYFQGGGGGGFYVRTPGKRLLEDKVGKDGLSHYSSEFSSRSSSAELKESRASKCSTTTKRSFAENAAGGTADSSKSHRSMPEVVSAQSQHSKTTGSHKRD
MIPITPTIALDDAEIEERFIRSSGPGGQNVNKVSTAVQLRFDVAGSPNLPGWVKHRLSVLAGSRLTGEGVLVLTAQSQRTQEANRREAVERLVALIQAACHRDKPRRPTRPTKGSQTRRMDGKTLRGAIKKGRQSKPSLDLEHHHHHH
MKLQLALDELTLPEAMVFMDKVVDDVDIIEVGTPFLIREGVNAIKAIKEKYPHKEVLADAKIMDGGHFESQLLFDAGADYVTVLGVTDVLTIQSCIRAAKEAGKQVVVDMICVDDLPARVRLLEEAGADMLAVHTGTDQQAAGRKPIDDLITMLKVRRKARIAVAGGISSQTVKDYALLGPDVVIVGSAITHAADPAGEARKISQVLLQHH
MSETPAQCSIKQERISYTPPESPVPSYASSTPLHVPVPRALRMEEDSIRLPAHLRLQPIYWSRDDVAQWLKWAENEFSLRPIDSNTFEMNGKALLLLTKEDFRYRSPHSGDVLYELLQHILKQRKPRILFSPFFHPGNSIHTQPEVILHQNHEEDNCVQRTPRPSVDNVHHNPPTIELLHRSRSPITTNHRPSPDPEQRPLRSPLDNMIRRLSPAERAQGPRPHQENNHQESYPLSVSPMENNHCPASSESHPKPSSPRQESTRVIQLMPSPIMHPLILNPRHSVDFKQSRLSEDGLHREGKPINLSHREDLAYMNHIMVSVSPPEEHAMPIGRIADCRLLWDYVYQLLSDSRYENFIRWEDKESKIFRIVDPNGLARLWGNHKNRTNMTYEKMSRALRHYYKLNIIRKEPGQRLLFRFMKTPDEIMSGRTDRLEHLESQELDEQIYQEDEC
MSDLVSYHLDDGVATLTLNNGKVNAISPDVIIAFNAALDQAEKDRAIVIVTGQPGILSGGYDLKVMTSSAEAAINLVAQGSTLARRMLSHPFPIIVACPGHAVAKGAFLLLSADYRIGVAGPFSIGLNEVQIGMTMHHAGIELARDRLRKSAFNRSVINAEMFDPEGAMAAGFLDKVVSVEELQGAALAVAAQLKKINMNAHKKTKLKVRKGLLDTLDAAIEQDRQHML
GAMAQVPTDPGYFSVLLDVKHFSPEEISVKVVGDHVEVHARHEERPDEHGFIAREFHRRYRLPPGVDPAAVTSALSPEGVLSIQATPASAQASLPSPPAAK

Soluble on expression in E. coli, not soluble:
MGSDKIHHHHHHMGGNRFGQSPVTGGAGVNAVAKRACLDDVQIAFGQGHRVHVARADTAPDLTRAFAQPIHLCTPICPPRTLTTTRHMDNPHGRAIVHAMEQLDADILIVGGGLNGPCLALACAQAGLSSVVLDALPAQTREETGFDGRAYALALASVRMLDALGIWNQVEDHAQPMLEIKASDGRAGEGAAPFFLHFDHAEIEEGPMGHMLEDRYLRRALMAAMEASSLVAHRAASRVLSQDTNGMASVTLDGGEVLRGRLLIGADGKRSGVAERAGIRRMGWDYNQTALVCAVDHDRPHNGIAHQFFMPGGPLAILPLPGNRSSIVWSESEPRASELAAADDDTFMDALRPAFGDFLGNISLTGQRHSYPLSLSLAQAFVAEKLALVGDAAHGVHPIAGQGLNLGLRDVSALAETLADAKRRGEDFARRDVLDRYQQWRRFDTAGLAVATDSVNRLFSNDNPAVRAIRDIGMGAIGALPTLRRRFIREAAGLTGDLPRLMQGRTL
MDLSSLEIFRAVAHEASVTRAAQRLQRAQSNVTTRIRQLEEDLGVELFLRDGKRMSLTERGSEFLAYAEQLLALADEARQSMHPAEPGGRLRLGSMESTAASRLPALLASYHKACPRVALEVSTGTSHALFDGVRARRLDCALVAAGPGWAGELDGSGLRGEPLFREELLMILPAEHPPVHDVAEVRLRTLAGFARGCTYRQLAEDSLGTPLTVQEVGSYHAILACVAAGACVGVLPRSVLQLLGTPPLRSLPLAEVDTWLVWREGYATAAFERWRGVLGQAGD
MGSDKIHHHHHHMALLDIRNLCIEIETPKGRVKIIDNVNLTLNEGEICGLVGESGSGKSLIAKVICNAIKDSWIITADRFRFDDVELLKLNPKKRRKLVGKEISMIYQEPLASLDPSRKIGQQLIQSIPSWTFKGRWWQWFGWKKRRAIELLHRVGVKDHKDIMQSYPHEVTEGEGQKIMIALAIANQPRLLIADEPTNSLESMTKVQIFRLLASMNQNQGTSILLVSNDINSISAWCDSFSVLYCGQNAESGSKENILENPHHPYTRALLHSIPDFKQPLVHKSRLSTLKGAVPLLEGMPIGCRLGPRCPFAQKECIRKPTAQRIKQHEFFCHFPINLKESQRREKEMETGPLVVNTTK
MLQLLLFLIFCSFTNASSCQDKSPYCNPNDCEVRPGYAMVYCRKTCGNCADFCEDSKFITCSAERKKDCDDMLSDYCPRLCGKCYAKLKPDSKRTKTIPVTQFKRNPAATSTTTTTTRSPSIRMKQPRMLPNGTFINPPLPKYEKLDDTTYTIPEHPTVIDYPIAHMEELMIPEPQRIWPEPEPMRIEPISVYSPYSFVPVQPQVSQPYSPWSPTLGLSSSLDSSRRAPQNYFSSYSQYPQYPDEKLNTIAPNPMQLVEPFLTPGQNDLNPKSMSSLINLLGCKDKDEVICKHVTADTCLSRPGYYLKLCPVTCKNCSGYQCIDSIKIDCAEVKAQGACKLSVASEYCPRTCEYCNPPSDMAKTMSDCKDELETCEQLAESGACQHDFR
MGSDKIHHHHHHMMQLLVTGATGFVGKTLCSALRRQSFPVKAIGRAGTIRADALGDQVASIDGQTDWSLILDGINAVIHLAARVHVMREQLADPLAAYRETNVEGTLNLARQAAKAGVKRFVFISSIKVNGEQTLPGKPFTAYDVPAPEDAYGISKFEAEQGLLALARETGMDVVVIRPPLVYGPGVKGNFASMMKLVKSGIPLPLGAIHNQRSLVAIDNLVNLIVTCIDHPAAANQVFLVSDGEDLSTSDLLRRLAKAAGVSSRLMPVSARWLEMGLRMCGKRLIAQRLLGSLQVDISKTRELLGWVPPISVDEGLKRCFSTKG
AKDDKVTVLSIERGNKLVYLEKLGLRGDQFYYKIERIRESNGVVYIYHTSYIPEQYINANYPNLEYYSSIYNRFKLDYHIHMNDEHFEEINEIVFPTPEHAASVLGVDEQFPTVLQTKITKLESTGQVLEYSETYKRSDYYKIKFISCDRDH
IKDFSYGARFNLSDQKDKLVDYGVEYNGFVAGVNQKVQGYSLGSIFGYRTDGYFTSEEEVKNSAAFNKAITGVGDIKYIDKDGDGKISAPNDLEYLGTTTPRYTFGLNLTAAWKGFDLGVLLQGVGKRNFYLSSEVMNPYYATWNNFSYKMHNDYWTPENPNAAFPRYYAGANHNYQISDHWLQNAAYVRLKNLQLGYTISPKLTKSWGIQRLRVYFSGDNLCEYSKLNDNFDPELSDINGYVYPIMRNFSFGINVTL
MSHLALKDLFSGFFVIDDEEEVEVPDKQQQVNEAPAKEQSQQTTKQNAIKSVPQKSASRYTTTSEERNNRMSNYSKNNSRNVVTMNNATPNNASQESSKMCLFEPRVFSDTQDIADELKNRRATLVNLQRIDKVSAKRIIDFLSGTVYAIGGDIQRVGTDIFLCTPDNVEVAGSITDHIENMEHSFDLEHHHHHH
CRELLPVEARQKTLLIDADLTLDEITPKFLNVLEQFAPFGFSNREPLFTATGCRLVGKPKLLRERHVKFTVRGEQSSSFEVIAFDRPDIFNDLEAHGSASALQLVCIPERNQWNGREYVQLRVMDMAIG
HVEQSNKDELLLEEITSWLEKNTDGKIVVFCGDKTVADNVYKFIEQNLPSVERHIDGKLPGFNISPQYNVLICDQSGEDGLNLQGKCRLAIHYSLPRTVMRIEQRIGRLNRYSASSIGVLPV
